In patent US20230126400A1 (Alector, published 2023):

B1: anti-MS4A4A antibody 4A-206, huIgG1 chimera (antibody, V domains shown)
VH: EVKLVESGGGLVKPGGSLKLSCAASGFTFSSYTMSWVRQTPEKRLEWVASLSSGGSTYYPDSVKGRFTISRDNARNILYLQMSSLRSEDTAMYYCAKDYYVSSYRWYFDVWGAGTTVTVSS
VL: DIQMTQITSSLSASLGDRVTISCRASQDISNYLNWYQQKPDGTVKLLIYYTSNLHSGVPSRFSGSGSGTDYSLTISNLEQEDIATYFCQQGKSFPWTFGGGTKLEIK
B2: anti-MS4A4A antibody 4A-208 (murine) (antibody, V domains shown)
VH: EVHLQQSGAEVVKPGASVKLSCTASGFNIKDTYIHWVMQRPEQGLEWIGRIDPANDNTKYDPKFQGKATITSDTSSNTAYLHLSSLTSEDTAVYYCARIAYGSWALDYWGQGTSVTVSS
VL: DIVMTQSQKFMSTSVGDRVIVTCKASQNVDTNVAWYQQKPGQSPKTLIYSASFRYSGVPDRFTGSGSGTDFTLSISNVQSEDLAEYFCQQYNSYPWTFGGGTKLEIK
notes: murine hybridoma antibody
B3: anti-MS4A4A antibody 4A-208, huIgG1 chimera (antibody, V domains shown)
VH: B2 VH
VL: B2 VL
B4: anti-MS4A4A antibody 4A-201, huIgG1 chimera (antibody, V domains shown)
VH: QVQLRESGPGLVAPSQSLSITCTVSGFSLSSFGVTWVRQPPGKGLEWLGIIWGDGSTNYHSALISRLSISKDNSKSQVFLKLNRLQTDDTATYYCAKRDYDGREDVMGYWGQGTSVTVSS
VL: DIVMTQSQKFMSTSVGDRVSITCKATQNVRTAVAWYQQKPGQSPKPLIYLASNRHTGVPDRFTGSGSGTDFTLTITNVQSEDLADYFCLQHWSYPLTFGAGTKLEMK
B5: anti-MS4A4A antibody 4A-213, huIgG1 chimera (antibody, V domains shown)
VH: QVQLKESGPGLVAPSQSLSITCTVSGFSLTSYGVHWVRQPPGKGLEWLGVIWVGGSTNYNSALMSRLSISKDNSKSQVFLKMNSLQTDDTAMYYCARAVYYYGSSYYFDYWGQGTTVTVSS
VL: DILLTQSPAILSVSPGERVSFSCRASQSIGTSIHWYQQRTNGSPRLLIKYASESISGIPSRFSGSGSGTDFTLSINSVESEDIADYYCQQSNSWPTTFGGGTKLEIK
B6: anti-MS4A4A antibody 4A-217 (murine) (antibody, V domains shown)
VH: EVKLVESGGGLVKPGGSLKLSCAASGFTFSSYGMSWVRQTPEKRLEWVAHISGGGTFTHYPDSVKGRFTISRDNAKNNLYLQMSSLRSEDTALYYCAREGAGTRFAYWGQGTLVTVSS
VL: DIQMTQTTSSLSASLGDRVTISCRPSQDISNSLNWYQQKPDGTVKLLIYSTSKLHSGVPSRFSGSGSGIDYSLTISNLEQEDIATYFCQQDYTLPWTFGGGTKLDVK
notes: murine hybridoma antibody
B7: anti-MS4A4A antibody 4A-217, huIgG1 chimera (antibody, V domains shown)
VH: B6 VH
VL: B6 VL
B8: anti-MS4A4A antibody 4A-207, huIgG1 chimera (antibody, V domains shown)
VH: EVNLEESGGGLVQPGGSMKLSCVASGFTFNNYWMNWVRQSPEKGLEWVAEIRLKSNNYATHYAESVKGRFTISRDDSKSSVYLQMNNLRPEDTAIYYCTTDPPMDYSGQGTPVTVSS
VL: QIVLTQSPAFMSASPGEKVTITCSASSSVSYMHWFQQKPGTSPKLWIYSTSNLVSGVPDRFSGSGSGTSYSLTISRMEAEYAATYYCHQRTSYPWTFGGGTKLEIK
B9: anti-MS4A4A antibody 4A-205 (murine) (antibody, V domains shown)
VH: EVQLVESGGDLVKPGGSLKLSCAASGFTFSHYGMSWVRQTPDKRLDWVATIGRDGIHTDYRDSVKGRFTISRDNAKNTLYLQMGSLKSEDSAIFYCARHLYYGLYYSMDYWGQGTSVTVSS
VL: ENVLTQSPAIMSASPGEKVTMTCSASSSVSFMYWYQQKSSTSPKLWIYDTSKLASGVPGRFSGSGSGNSYSLTISSMEAEDVATYYCFQGSGYPLTFGSGTKLEIK
notes: murine hybridoma antibody
B10: anti-MS4A4A antibody 4A-205, huIgG1 chimera (antibody, V domains shown)
VH: B9 VH
VL: B9 VL
B11: anti-MS4A4A antibody 4A-209, huIgG1 chimera (antibody, V domains shown)
VH: EVKLLESGGGLVQPGGSLKLSCAASGFDFSRYWMSWVRQAPGKGLEWIGEIKSDSSTINYTPSLKDKFIISRDNAKNTLYLQMSKVRSEDTALYYCARRGFYDYDAWFAYWGQGTLVTVSS
VL: QIVLTQSPTLMSASPGEKVTMTCSASSSVTYMYWYQQKPRSSPKPWIYLTSNRASGVPTRFSGSGSGTSHSLTISYMEAEDAATYYCQQWSSNPPTFGAGTKLELR

Key:
human MS4A4A [1] = target: T1, human MS4A4A (human, UniProt Q96JQ5 1-239); assay: FACS, parental U937 cells (endogenous human MS4A4A, not overexpressed), 5 ug/ml
Description: (§1) Purified huIgG1 chimeric anti-MS4A4A antibodies were screened for their ability to differentially bind MS4A4A on U937 cells stably overexpressing human MS4A4A, U937 cells with human MS4A4A knocked out, and parental U937 cells. Differential binding to MS4A4A expressed on these cells was assessed by FACS analysis using 5 μg/ml of purified anti-MS4A4A chimeric antibodies, as described above.

human MS4A4A [2] = target: T1, human MS4A4A; assay: FACS, U937 cells overexpressing human MS4A4A, 5 ug/ml
Description: as §1

cynomolgus (cyno) MS4A4A = target: T2, cynomolgus (cyno) MS4A4A (cynomolgus); assay: FACS, 300.19 cells, supernatant
T2 construct: also called cy4A; Cyno 4A
Description: (§2) Positive clones identified in Example 22 above were expanded and then rescreened for specificity against U937, K562, and/or 300.19 cells stably overexpressing human MS4A4A or cyno MS4A4A and parental U937, K562, and/or 300.19 cells. These experiments were performed using supernatants from hybridoma clones which had undergone further expansion after initial selection. Briefly, stably transfected cells were labeled with LIVE/DEAD Fixable Aqua Dead Cell Stain Kit (ThermoFisher Scientific Cat#L34957) on ice for 30 minutes. […] 2×10⁵ cells were aliquoted per well in 96-well U-bottom plates and incubated with 50 μl of culture supernatant on ice for 30 minutes. […] Following this secondary incubation, the cells were again washed twice with ice-cold FACS buffer and resuspended in a final volume of 200 μl of FACS buffer. Analysis was performed on a FACS Canto system (BD Biosciences), with gates drawn to exclude dead (Aqua-positive) cells.
(§3) The APC ratio was calculated for each antibody as follows. […] For cell lines overexpressing human MS4A4A (h4A) or cyno MS4A4A (cy4A), the ration was calculated by comparing the binding measured to the binding observed on the corresponding parental cell lines.

human MS4A4A [3] = target: T1, human MS4A4A; assay: FACS, K562 cells, supernatant
Description: as §2, §3

[4] = target: T3, human MS4A4A ECL2 peptide (amino acid residues 159-179), free (human); assay: peptide ELISA, supernatant
T3 construct: synthetic peptide; also called huMS4A4A-ELC2 free-peptide
T3 peptide: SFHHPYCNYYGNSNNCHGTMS

human MS4A4A [5] = target: T1, human MS4A4A; assay: FACS, U937 cells, supernatant
Description: as §2, §3

[6] = target: T4, human MS4A4A ECL1 peptide (amino acid residues 86-98) (human); assay: peptide ELISA
T4 construct: synthetic peptide
T4 peptide: CMASNTYGSNPIS
Description: Briefly, 96-well polystyrene plates were coated with […] of synthetic free or BSA-conjugated peptides in coating buffer (0.05M carbonate buffer, pH9.6, Millipore Sigma Cat#C3041) overnight at 4° C. Coated plates were then blocked with ELISA diluent (PBS+0.5% BSA+0.05% Tween20) for 1-hour, washed 3×300 μL in PBST (PBS+0.05% Tween20, Thermo Cat#28352), and then the antibodies were added to the plate (50 μl/well). After 30 mins incubation (room temperature, with shaking), the plates were washed 3×300 μL in PBST. […] After a final set of washes (3×300 μL in PBST), 50 μL of TMB substrate (BioFx Cat#TMBW-1000-01) was added and the reaction was then quenched after 5-10 mins with 50 μL of stop solution (BioFx Cat#BSTP-1000-01). The quenched reaction wells were detected for absorbance at 650nm with a BioTek Synergy Microplate Reader using GENS 2.04 software.

ratio of MFI over secondary antibody alone (human MS4A4A [1]) [ratio] | ratio of MFI over secondary antibody alone (human MS4A4A [2]) [ratio] | fold increase in MFI (cynomolgus (cyno) MS4A4A) [fold] | fold increase in MFI (human MS4A4A [3]) [fold] | binding result [4] | fold increase in MFI (human MS4A4A [5]) [fold] | binding result [6] | Binder
1.1 | 18.5 | – | – | – | – | – | B1
– | – | > 2 | > 2 | no binding | > 2 | no binding | B2
1.1 | 19.9 | – | – | – | – | – | B3
1.1 | 8.9 | – | – | – | – | – | B4
1.1 | 13 | – | – | – | – | – | B5
– | – | > 2 | – | no binding | > 2 | no binding | B6
1.1 | 23.6 | – | – | – | – | – | B7
1.1 | 10 | – | – | – | – | – | B8
– | – | > 2 | > 2 | no binding | > 2 | no binding | B9
1 | 25.3 | – | – | – | – | – | B10
1.1 | 19.8 | – | – | – | – | – | B11
